Source: the supplement of paper PMC12636428

Tested on: Saccharomyces cerevisiae
Assay: transcriptional activation domain activity (GFP:mCherry ratio, weighted mean of sorted bins, harmonized to initial dataset scale) (arbitrary fluorescence ratio units); higher = stronger transcriptional activation
Settings: beta-estradiol 1 µM; induction time 4 h
Method in brief: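 The listed activation activity is a read-weighted mean of bin median fluorescence, averaged across barcodes and linearly mapped onto the initial dataset scale. Barcoded tiles, fused to an estradiol-inducible synthetic transcription factor, were integrated at URA3 in yeast diploids bearing a GFP reporter. Cells were held 4 hours at 30 °C in SC with 1 uM beta-estradiol, sorted into 8 GFP:mCherry bins, and sequenced, and tiles with fewer than 50 reads were excluded.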

Sequence	transcriptional activation domain activity
YSHLFNLHTVVFDNYLLYHNAFLLFPLVFCVLPICAIFCFCGMLCNLNRLSGR	66600
EESAEEKQEEEDSADAKKQKTNGDAEEIEEAGENDEEKAEESTSKKKGRPAKN	25100
MDGVGLGSHRGSGSSSSSSSSAADRAPRHSTRRKRGRESRGAVVVIAATNRPN	39200
GAGGAAGGAGAGAGTAATGGNAAGGKASATKPAAGAKSSPAAAAAAAGTRLTG	7150
AAAGAADEAKTSSSPNGTKEAAVASSGGEKPAAAGVAGAPNSQSQTGAQPTKK	28700
MVLCPSSYSFPLPPFFLFFFLSSPFFFAALFFFFPFLPPNSRVCPSLFPLSLL	62600
HFSPSLSISSLPSLCCLFFFIIFSTSLLWSFFPLPYLTSPYLTLPYTTFFLFP	48000
AVAAAVAAIAAVAAEIKTVPAQAQEQEQEQEQEQAQVQVQVQAQAQPQQQQQA	< 6570
VPLLDSNFISLNSNPLLYIQNQNPNSNSSVKVSRSQTFEPSKELIDLVFPWLS	122000
SGDAVMKDAVEEAGAAAAEAKPEPEPKPEPKPKRKAPAKKAKIVAAVSAAIAN	26600
CILVYLCHVSYLILLPRFDYVYNIIFNMVIGLTHNALWLLYSLPTSISLFRRF	53500
TIDSSGVVLTPDPLSFDIGNFDSFSTSLYGFWPLTNAFDFTPYNSGSLAWLLL	99800
ARDDGGGEGAAGETHQAQEARRVLDAGGRARAGAGALRAGPQQHPAPARALRP	14300
MLFIFFVIFFYFFLFSSIFFYHFIFLFSLELSLYFVDLSLELIPIYFPVCILS	46300
FGRSKAKRRAGRGFGTSGYGAGSSASNGGKDAKGGDTKGAENRYHDNKDEDND	38200
RLKLFIMVVFCLGTIHEYALIGMYWSILISCRRSMSLECTTKLPWQMVLGVFM	49800
SSSEDDGKAGEGSSSSSDSEKARGRKKAKKSKEKGKGKATEGNSSSSSSDDDS	21100
DNDDDGETAAGGRLAHLLQILVCNAIYSFEPLLNCSQDVNNVLVVVTRYYGGI	57500
PEEKKEKAAEGEATKKEGEVGKKKGKKGDKKKEASGEQAPAAAAPAEEKKAEQ	< 6570
TSAFGGGNTGGGLFGQQNKPTTGFGSSPAPAGGLFGGGSGTTTSTPAFGAAAA	37300
LIHLMNIGQVSILFIHRFLYGLVPLFEITTCAFWPLLVSLWHLNFVLMYCIMF	66000

Sequence	transcriptional activation domain activity
ASSTAAASAASSAAAAKGGNNNAGKGAAAAKGGAAAAKGGAAAGGAAAAKGGA	24400
ELWHSLYMLFKTYWCRLLHYALSLVLLCSFIVRLVSVIAILDSKRCGLTLFAA	73200
ESDEEAAVEAEAPKKKGRAKKVKPESEVDHEPAFEQPKKKGRAAKAKIQPAEE	15400
MCLFVLCLGLLVFFPTRYLLRSAWIKFIKYFNLFLRIIDLGCLFCIPCLIIKY	42500
MTLLLLLLLLLFSYNFTYIYLFFLLLSFHLCVSLYTTFTLNFIFLYTSLYILD	74200
WGFRVMSQLPTFWYRTEYFWIDYPHWDMKPELKRYYLMQMAYWLQQLIVLVLG	92400
ESPSQINDFIPQKLIIEPNTLELNGLTEETPHDLPKNTAKGRDEEDFPLDYFP	55200
QNLFGYLERSLNRSTKLRATGMLKEGMVRIFIQKIEGSPFEVTMQFARKFFTA	35900
AAAAREKAEAERKEKAEKEERERLEREKREVEAERKKVAAAAARAEKEKAKAA	13400
GFSVDPIVSLLYRAFTMMDVTFLRTVCFDIFSRYSTAELALVNQAFTAKHKKK	40700
MGRLGTLGLSQEQLDNLRYYKYAAVDRSQLTKYVLRHYWNWAITLFPTWIAPN	32100
MLINKLIVLRELCYSDDAAKQIVMYVISLFLSLIFYSFLPCLGLICLSILVPS	49100
ENNDQFNNKTRKRKRRMSSTSSTSKASRKNSISRKNSAVTTAPAQKDDVENNK	< 6570
AVPAEGAKPEETPAAAPAETTEAAKTEESKPEAPAASEPAKTEPAAPAAAPAA	< 6570
LVVCCLASQVFIDSILLLPVKIVPPFYRLLSGVVNLVICRLTLFFLGFWWIPV	59500
MVLFLFCLITFACSRTWVMAFLLIWVSSFFLFILFFFSFFSYYAFRVLPLCYS	46300
MYHITVFSLPLNLYCARCFALTLTILMGKSFLMGFINVFNRICTLLVTTLFLI	70100
QWSVMTYLYLAVRYFGIFLAMICSYWGGLFYIPETVSHVMFLLMQWSYSVYFC	78000
YMIGLLFRTYFKLKSLNLCKNVLRAVSVSELPSLSEFPKAHQVTFRYYTGVLS	70100
QRNDARLIPGIKYLQLVLGRVRCCREIIAILARNGHRLPKGMLPTLVRLWLLM	35800
SKWWLLGDSFEADILTFITLYQFVNAGFVFNYGYIFRKSWYRNYLLICIWALF	67200

Sequence	transcriptional activation domain activity
EEEEEEERPAKRQKKKLAAEEDEEEGEGEGEEEEEEEERPAKRQKKKPAAEDE	26900
PDRLDGRCVPDLSFFSVGDFTPISLVFFLSFPLLLFFFSFFFFFFFFFFFFFF	37700
GATSTPAATGTTGGLFGSGGTTTGGFGSTSTPAAGGFGSTSTGGGLFGAKPAT	21400
PAASTTHATAAPPAAPSPPSQTTPSAPATAASAPRTSPRPCASSCTSSATSRS	31600
MSDDLGASPTQRPLRKSHRKSRKGCLDCRRRRVKCGEERPSCLVCVRRNVRCE	49200
RDCQWCAQLVRRTAIVAFNATNAVLNANMYVFVCIFLIAWLVVWKTWLWSVAL	38300
ARAYISLCWRMIVTKGLHRPPVSSVVDKALRKRQLKLLMVLYYNDFTNAVYSG	52300
MVFFTSSFLLGFFSFVSFRNHCSFFLMAPFLTGSELFLFFVLLFILFFFFGFG	48800
MMRKLAYFYALPEVQNSKVLQTIVKKGFVPLLIALIFPRVTEDQLRVVIRFCQ	50000
VGLKWGMGRDKSFSFTSKLNNPQFLGSLDLEILEELEKLISAQEFSRNFTEDV	70100
FPILLRFIFTHFRMLFSCQLFCLMGFRVECLDFDPGSFILFHLTFLWLPFVLF	53300
MISIPFPFHFIFKYVWWYYHVLYCLLACLLACCSCTYMFYLPVLLMLLLLFGC	41900
ADSRRKTRRVRKRKSSRRHQEEGEEEESESEEEEADARKRRKKEKGGGKDKKK	23600
IFLHIFLLVLLRLLFLLLSLFYFLLLPHFFYNQPSLLLRLFLNFFQLSLSILL	34100
VKWAKETRGEQRKRLHIVPVGIVYTNKSQYQSRVSSRVHICVHVEAFVQERTS	52100
KSPHMSAVESKPKEAKTVVEPKADKAAEVKKEEPKKEVVAAPEPVAAKPIAQI	35600
MRFPPLLFSFFLFFLFFFHLFLFLFHNLFFFYQSFFSSQPLFSFSLSFLSSSL	42800
MVLLSRLIFVAVILSLTGCRSQLESRCMVFGYRRVLVVVVRAISSCAALLRCA	71100
LLLALLIADCGHLVSMRGLGVQVYWNIWEWNVFTAASVLLVYFYITLRICFLF	53300
